Results from patent US20030199036.

Biological target: S. pombe cdc25 tagged with a triple tandem copy of the hemagglutinin epitope (UniProt P06652)

Schizosaccharomyces pombe pub1 (untagged)
accumulation of cdc25 higher molecular weight (ubiquitinated) species in mts2 mutants, pub1 wild type (SP 1212) against pub1 disruption (SP 1213), Western blot: We estimate that disruption of pub1 reduces the accumulation of cdc25 higher molecular weight species at least 10 fold.
